This passage reports Km results from article PMC6910923, “Novel halo- and thermo-tolerant Cohnella sp. A01 L-glutaminase: heterologous expression and biochemical characterization” (Scientific Reports, 2019).

The test system of this data set is NC(=O)CC[C@H](N)C(=O)O. Description: purified protein. The note with it: MgCl2 present, 0-25 mM substrate, standard assay pH 8 phosphate, 50 °C.

The Km is the substrate concentration at which the rate is half of its maximum. Regarding rSAM (L-glutaminase) (Cohnella sp.), the Km is 1800 µM.
